Where “and” joins values, the source holds several entries; their conditions need not be identical. Equal entries are not always repeated.
How the values were obtained:
[1] = target: T1, MERS-S on pseudotyped VSV particles (MERS-S carrying a 16-a.a. cytoplasmic tail truncation) (MERS-CoV, UniProt K9N5Q8 18-1337); assay: cell-based or functional assay
[2] = target: T1, MERS-S on pseudotyped VSV particles …; assay: cell-based or functional assay; remark: listed apart in the source
MERS-S1^A domain = target: T2, MERS-S1^A domain (MERS-CoV EMC isolate, UniProt K9N5Q8 19-357); assay: ELISA on coated MERS-S1^A, OD450 [D]
T2 sequence: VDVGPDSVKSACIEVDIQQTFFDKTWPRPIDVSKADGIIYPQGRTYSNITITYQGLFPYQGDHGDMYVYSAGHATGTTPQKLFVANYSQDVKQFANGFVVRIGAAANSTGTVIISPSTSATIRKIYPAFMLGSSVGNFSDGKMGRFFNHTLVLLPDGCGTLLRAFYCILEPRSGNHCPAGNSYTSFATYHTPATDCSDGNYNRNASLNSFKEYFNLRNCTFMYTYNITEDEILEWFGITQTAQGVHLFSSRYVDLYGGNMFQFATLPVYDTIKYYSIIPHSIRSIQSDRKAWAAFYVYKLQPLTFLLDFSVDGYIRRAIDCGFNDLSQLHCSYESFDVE

[3] = target: T3, MERS-CoV S S1 subunit (MERS-S1) (MERS-CoV EMC isolate, UniProt K9N5Q8 19-748); assay: ForteBio Octet / BLI (FIG. 2F and 3A)
[4] = target: T3, MERS-CoV S S1 subunit (MERS-S1); assay: ELISA on coated MERS-S1, OD450 [D]
[5] = target: T4, NL63 coronavirus spike protein (HCoV-NL63, UniProt Q6Q1S2 16-1291); assay: ELISA on NL63 Secto
T4 sequence: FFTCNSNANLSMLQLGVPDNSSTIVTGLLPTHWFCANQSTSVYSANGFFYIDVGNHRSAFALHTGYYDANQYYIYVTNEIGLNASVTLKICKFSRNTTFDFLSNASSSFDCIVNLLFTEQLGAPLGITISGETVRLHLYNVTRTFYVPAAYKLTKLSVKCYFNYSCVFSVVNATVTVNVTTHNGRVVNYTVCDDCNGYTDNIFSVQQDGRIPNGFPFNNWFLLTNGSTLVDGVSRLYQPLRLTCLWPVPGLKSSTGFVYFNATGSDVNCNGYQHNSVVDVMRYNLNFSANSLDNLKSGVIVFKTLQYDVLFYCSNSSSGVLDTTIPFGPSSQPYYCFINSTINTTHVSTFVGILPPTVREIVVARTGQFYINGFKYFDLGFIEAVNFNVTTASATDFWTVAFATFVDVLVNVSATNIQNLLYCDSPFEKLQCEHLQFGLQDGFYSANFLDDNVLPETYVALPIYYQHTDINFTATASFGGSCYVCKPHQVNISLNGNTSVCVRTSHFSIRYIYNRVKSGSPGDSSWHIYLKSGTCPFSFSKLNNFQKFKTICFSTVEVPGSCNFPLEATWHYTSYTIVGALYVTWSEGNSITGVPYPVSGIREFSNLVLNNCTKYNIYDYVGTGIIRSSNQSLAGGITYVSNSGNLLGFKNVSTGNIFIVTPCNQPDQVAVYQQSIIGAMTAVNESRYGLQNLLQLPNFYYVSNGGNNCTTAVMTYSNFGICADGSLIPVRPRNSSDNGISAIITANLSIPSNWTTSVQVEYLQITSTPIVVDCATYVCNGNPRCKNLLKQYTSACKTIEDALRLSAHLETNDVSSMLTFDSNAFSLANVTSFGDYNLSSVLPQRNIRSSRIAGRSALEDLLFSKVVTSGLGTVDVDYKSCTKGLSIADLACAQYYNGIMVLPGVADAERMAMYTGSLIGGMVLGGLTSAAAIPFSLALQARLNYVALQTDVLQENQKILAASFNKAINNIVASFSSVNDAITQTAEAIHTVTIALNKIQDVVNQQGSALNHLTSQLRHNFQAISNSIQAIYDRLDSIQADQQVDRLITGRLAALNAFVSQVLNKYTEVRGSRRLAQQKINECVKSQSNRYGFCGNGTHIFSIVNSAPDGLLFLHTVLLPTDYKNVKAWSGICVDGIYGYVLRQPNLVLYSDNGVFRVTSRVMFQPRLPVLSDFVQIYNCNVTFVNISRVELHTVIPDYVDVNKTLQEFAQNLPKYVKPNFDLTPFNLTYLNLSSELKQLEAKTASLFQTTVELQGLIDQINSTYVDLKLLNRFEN

[6] = target: T5, MERS-S1^B domain (receptor binding domain) (MERS-CoV EMC isolate, UniProt K9N5Q8 358-588); assay: ELISA on coated MERS-S1^B, OD450 [D]
[7] = target: MERS-S2 ectodomain (MERS-S2^ecto) (MERS-CoV EMC isolate, UniProt K9N5Q8 752-1262)
peptide 10 = assay: ELISA on coated overlapping MERS-S2 peptides, A450 [D00032 Fig. 14(B]
peptide 11 = assay: as above
[8] = target: T3, MERS-CoV S S1 subunit (MERS-S1); assay: affinity measurement of HCAbs (method not told)
SARS-CoV spike protein = SARS-CoV spike protein (SARS-CoV, UniProt P59594 15-1182); assay: ELISA on SARS Secto
[9] = target: T5, MERS-S1^B domain (receptor binding …); assay: see FIGS. 5(A) and 29(A)
[10] = target: T5, MERS-S1^B domain (receptor binding …); assay: see FIG. 5A

B1: 1.8e5 (antibody, V domains shown)
VH: QVQLQESGPGLVKPSGTLSLTCAVSGGSISSNRWWTWVRRSPGKGLEWIGEIYHSGSTNYNPSLKSRVTISVDRSKNQFSLKLSSVTAADTAVYYCASLTLIWFGEKAFDIWGQGTMVTVSS
VL: EIVMTQSPATLSVSPGERATLSCGASPSVSTNLAWYQQRPGQAPRLLIYGISTRAAGIPARFSGTGSGTEFTLTISSLQSEDFALYYCQQYNNWPYTFGQGTKLEIKR
[1]
  IC50, neutralisation of MERS-S VSV pseudovirus on Vero cells: 1.5 µg/mL
[2]
  IC50, MERS-S pseudovirus infection (human IgG1): 10 nM
  IC50, neutralization of MERS-S pseudovirus infectivity (H2L2): ~0.0903 µg/mL
  IC50, neutralization of MERS-S pseudovirus infectivity (human IgG1): ~2.59 µg/mL
MERS-S1^A domain
  binding result: no binding (tested: about 5x10^5 ng/ml)
[3]
  Kd: ~0.32 nM

B2: 1.6c7 (antibody, V domains shown)
VH: QVQLQQSGPGLVKPSQTLSLTCAISGDSVSSDSAAWNWIRQSPSRGLEWLGRTYFRSKWNNHYAVSVKSRITINPDTSKNQFSLLLNPVTPEDTAVYYCARATLARGALDYWGQGTLVTVSS
VL: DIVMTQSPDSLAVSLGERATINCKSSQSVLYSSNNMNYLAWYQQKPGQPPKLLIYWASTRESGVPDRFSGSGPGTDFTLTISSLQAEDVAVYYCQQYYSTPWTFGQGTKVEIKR
[4]
  binding result: no binding (tested: about 5x10^5 ng/ml)
[5]
  binding result: no binding (tested: 25.00 (no unit printed))
[6]
  binding result: no binding (tested: about 5x10^5 ng/ml)
[1]
  IC50, neutralisation of MERS-S VSV pseudovirus on Vero cells: 0.367 µg/ml and 2.45 nM
[2]
  IC50, MERS-S pseudovirus (human IgG1): 2.45 nM
  IC50, neutralization of MERS-S pseudovirus infectivity (1.6c7 antibody, H2L2): ~0.59 µg/mL
[7]
  EC50 (read off the curve): ~0.03 µg/mL
MERS-S1^A domain
  binding result: no binding (tested: about 5x10^5 ng/ml)
Peptide 10
  binding result: no binding
Peptide 11
  binding result: no binding

B3: 1E10 heavy chain-only antibody (antibody, V domains shown)
VH: EVQLLESGGGWVQPGGSLRLSCAASGFTFSTNAMSWVRQAPGKGLEWVSGISGSGGSTDYADSVKGRFTISRDNSKNTLYLQMNSLRAEDTAVYYCAPRIAVAPDALDIWGQGTMVTVSS
[8]
  Kd: 1 nM

B4: 2.6h11 (antibody, V domains shown)
VH: EVQLVESGGGLVQPGRSLRLSCTASGFTFGDYVMSWFRQAPGKGLEWVGFIRSKAHGGTTEYAASVNGRFSISRDDSKTIAYLQMNSLKSEDTAVYYCTWLRNDYYYGMDVWGLGTTVTVSS
VL: DIMMTQSPLSLPVTPGEPASISCRSSQRLLHSNGYSYVDWYLQKPGQSPQLLIYLGSDRASGVPDRFSGSGSGTDFTLKISRVEAEDVGVYYCMQTLQTPWTFGQGTKVEIKR
SARS-CoV spike protein
  binding result: no binding (tested: 25.00 (no unit printed))
Peptide 10
  binding result: no binding
Peptide 11
  binding result: no binding

B5: 1G3 heavy chain-only antibody (antibody, V domains shown)
VH: EVQLVESGGGVVQPGRSLRLSCAASGFTFSSYGMHWVRQAPGKGLEWVAVIWYDGSNKYYADSVKGRFTISRDNSKNTLYLQMNSLRAEDTAVYYCARDERIFGVPDAFDIRGQGTMVTVSS
[8]
  Kd: 21.7 nM

B6: 3.5g6 (antibody, V domains shown)
VH: QVQLQQSGPGLVKPSQTLSLTCAISGHSVSSNSADWNWIRQSPSRGLEWLGRTYCRSKCYNDYAVSVKSRITINPDTSKNQFSLQLNPVTPEDTAVYYCARSLGSGTYPFDSWGQGTLVTVSS
VL: DIQMTQSPSSLSASVGDRVTITCRASQRISRFLNWYQQTPGKAPKFLIYAASSLQSGVPSRFSGSGSGTDFTLTISSLQPEDFATYYCQQSYSTPLTFGGGTTVEIKR
[4]
  binding result: no binding (tested: about 5x10^5 ng/ml)
SARS-CoV spike protein
  binding result: no binding (tested: 25.00 (no unit printed))
[6]
  binding result: no binding (tested: about 5x10^5 ng/ml)
[1]
  IC50, neutralisation of MERS-S VSV pseudovirus on Vero cells: 2.49 µg/mL
[2]
  IC50, MERS-S pseudovirus (human IgG1): 16.6 nM
[7]
  EC50 (read off the curve): ~0.2 µg/mL
MERS-S1^A domain
  binding result: no binding (tested: about 5x10^5 ng/ml)

B7: 1H5 heavy chain-only antibody (antibody, V domains shown)
VH: EVQLVESGGGLVQPGGSLRLSCAASGFTFSSYWMLWVRQAPGEGLVWVSRIDSDGSNTTYADSVKGRFTVSRDNAKNTLYLQMNSLRAEDTAVYYCARSGYGYAFDIWGQGTMVTVSS
[8]
  Kd: 10.9 nM

B8: 7.7a9 (antibody, V domains shown)
VH: EVQLLESGGGSVQPGGSLRLSCEASGFTFNTYPMSWVRQAPGKGLEWVSGISGSGDRTFYEDSVKGRFTISRDNSKNTLYLQMHSLRGEDTAVYYCAKDLGGEGYWGQGTLVTVSS
VL: QAVVTQESALTTSPGETVTLTCRSSTGAVTTSNYANWVQKKPDHLFTGLIGGTNNRAPGVPARFSGSLIGDKAALTITGAQTEDEAIYFCALWYSNHSVFGGGTKLTVLG
[9]
  binding result: binds

B9: 7.4f3 (antibody, V domains shown)
VH: EVQLLESGGGLVQPGGSLRLSCEDSGVTFSSNPMSWVRQGPGKGLEWVSGISGSGDRTFYEDSVKGRFTISRDNSKNTLYLQMNSLRAEDTAVYYCAKDLGGEGNWGQGTLVTVSS
VL: QAVVTQESALTTSPGETVTLTCRSSTGAVTISNYANWVQEKPDHSFTGLIGGTNNRAPGVPARFSGSLIGDKAALTITGAQTEDEAIYFCALWYNNQSVFGGGTKLTVLG
[10]
  binding result: binds

B10: 4.6e10 (antibody, V domains shown)
VH: QVQLVESGGGVVQPGRSLRLSCTASGFTFTYYGLHWVRQAPGKGLEWVAVIWYDGSNQYYADSVQGRFTISRDNSKNTLYLQMNSLRAEDTAVYYCAREGLGAVAGYYFDYWGQGTLVTVSA
VL: DIQMTQSPSSLSASVRDRVTITCRASQIISNYLNWYQQKPGKAPKLLIYAASSLQSGVPSRFSGSGSGTDFTLTISSLQPEDFATYFCQQSYSTPFAFGPGTKVDIKR
[1]
  IC50, neutralisation of MERS-S VSV pseudovirus on Vero cells: 0.048 µg/mL
[2]
  IC50, MERS-S pseudovirus infection (human IgG1): 0.32 nM
  IC50, neutralization of MERS-S pseudovirus infectivity (H2L2): ~0.0313 µg/mL
  IC50, neutralization of MERS-S pseudovirus infectivity (human IgG1): ~0.07 µg/mL
MERS-S1^A domain
  binding result: no binding (tested: about 5x10^5 ng/ml)
[3]
  Kd: ~0.36 nM

— patent US20220275059A1 (HARBOUR ANTIBODIES, published 2022)
